Assay results published in article PMC5736220.

Key:
pcdh15 (Mus musculus) = pcdh15 (Mus musculus) (UniProt Q99PJ1); assay: ITC; settings: cited from earlier work
[1] = molecular target: protocadherin-15 EC1+2 I22A, His-tagged (mouse) (UniProt Q99PJ1); assay: thermal scanning (thermal stability shift assay with SYPRO orange); pcdh15 fixed at 0.1 mg/mL (~4 μM), cdh23 0.1 to 0.5 mg/mL (~4 to 20 μM; cdh23:pcdh15 1:1 to 5:1); SEC buffer (20 mM Tris-HCl pH 7.5, 150 mM KCl, 50 mM NaCl, 2 mM CaCl2); 10 to 95°C in 0.2°C steps, 5 s equilibration; read-out: shift of the Tm of pcdh15 (ΔTm)

| ΔTm of pcdh15 at cdh23:pcdh15 1:1 [1] [°C] | ΔTm of pcdh15 at cdh23:pcdh15 2:1 [1] [°C] | ΔTm of pcdh15 at cdh23:pcdh15 3:1 [1] [°C] | ΔTm of pcdh15 at cdh23:pcdh15 4:1 [1] [°C] | ΔTm of pcdh15 at cdh23:pcdh15 5:1 [1] [°C] | Substance | Kd (pcdh15 (Mus musculus)) [nM] |
| --- | --- | --- | --- | --- | --- | --- |
|  |  |  |  |  | cdh23 (from UniProt Q99PF4) | 2900 |
| 0.5 | 0.7 | 1 | 1.1 | 1 | cadherin-23 EC1+2, wild type, His-tagged (from UniProt Q99PF4 24-228) (domain or fragment) |  |
